Laboratory results from US7662583B2, “Bioreactor containing cells expressing glycosyltransferase nucleic acids isolatable from Arabidopsis” (The University of York, priority 2003, dated 2010).

B1: UGT71C1: Arabidopsis recombinant glycosyltransferase (protein, UniProt O82381 1-481, looked up)
Flavonol …: MGKQEDAELVIIPFPFSGHILATIELAKRLISQDNPRIHTITILYWGLPFIPQADTIAFLRSLVKNEPRIRLVTLPEVQDPPPMELFVEFAESYILEYVKKMVPIIREALSTLLSSRDESGSVRVAGLVLDFFCVPMIDVGNEFNLPSYIFLTCSAGFLGMMKYLPERHREIKSEFNRSFNEELNLIPGYVNSVPTKVLPSGLFMKETYEPWVELAERFPEAKGILVNSYTALEPNGFKYFDRCPDNYPTIYPIGPILCSNDRPNLDSSERDRIITWLDDQPESSVVFLCFGSLKNLSATQINEIAQALEIVDCKFIWSFRTNPKEYASPYEALPHGFMDRVMDQGIVCGWAPQVEILAHKAVGGFVSHCGWNSILESLGFGVPIATWPMYAEQQLNAFTMVKELGLALEMRLDYVSEDGDIVKADEIAGTVRSLMDGVDVPKSKVKEIAEAGKEAVDGGSSFLAVKRFIGDLIDGVSISK
B2: UGT76E12: Arabidopsis recombinant glycosyltransferase (protein, UniProt Q94AB5 1-458, looked up)
Flavonol …: MQVLGMEEKPARRSVVLVPFPAQGHISPMMQLAKTLHLKGFSITVVQTKFNYFSPSDDFTHDFQFVTIPESLPESDFKNLGPIQFLFKLNKECKVSFKDCLGQLVLQQSNEISCVIYDEFMYFAEAAAKECKLPNIIFSTTSATAFACRSVFDKLYANNVQAPLKETKGQQEELVPEFYPLRYKDFPVSRFASLESIMEVYRNTVDKRTASSVIINTASCLESSSLSFLQQQQLQIPVYPIGPLHMVASAPTSLLEENKSCIEWLNKQKVNSVIYISMGSIALMEINEIMEVASGLAASNQHFLWVIRPGSIPGSEWIESMPEEFSKMVLDRGYIVKWAPQKEVLSHPAVGGFWSHCGWNSTLESIGQGVPMICRPFSGDQKVNARYLECVWKIGIQVEGELDRGVVERAVKRLMVDEEGEEMRKRAFSLKEQLRASVKSGGSSHNSLEEFVHFIRTL
B3: UGT84B1: Arabidopsis recombinant glycosyltransferase (protein, UniProt O22182 1-456, looked up)
UDP-glycosyltransferase 84B1: MGSSEGQETHVLMVTLPFQGHINPMLKLAKHLSLSSKNLHINLATIESARDLLSTVEKPRYPVDLVFFSDGLPKEDPKAPETLLKSLNKVGAMNLSKIIEEKRYSCIISSPFTPWVPAVAASHNISCAILWIQACGAYSVYYRYYMKTNSFPDLEDLNQTVELPALPLLEVRDLPSFMLPSGGAHFYNLMAEFADCLRYVKWVLVNSFYELESEIIESMADLKPVIPIGPLVSPFLLGDGEEETLDGKNLDFCKSDDCCMEWLDKQARSSVVYISFGSMLETLENQVETIAKALKNRGLPFLWVIRPKEKAQNVAVLQEMVKEGQGVVLEWSPQEKILSHEAISCFVTHCGWNSTMETVVAGVPVVAYPSWTDQPIDARLLVDVFGIGVRMRNDSVDGELKVEEVERCIEAVTEGPAAVDIRRRAAELKRVARLALAPGGSSTRNLDLFISDITIA
B4: UGT89B1: Arabidopsis recombinant glycosyltransferase (protein, UniProt Q9C9B0 1-473, looked up)
Flavonol …: MKVNEENNKPTKTHVLIFPFPAQGHMIPLLDFTHRLALRGGAALKITVLVTPKNLPFLSPLLSAVVNIEPLILPFPSHPSIPSGVENVQDLPPSGFPLMIHALGNLHAPLISWITSHPSPPVAIVSDFFLGWTKNLGIPRFDFSPSAAITCCILNTLWIEMPTKINEDDDNEILHFPKIPNCPKYRFDQISSLYRSYVHGDPAWEFIRDSFRDNVASWGLVVNSFTAMEGVYLEHLKREMGHDRVWAVGPIIPLSGDNRGGPTSVSVDHVMSWLDAREDNHVVYVCFGSQVVLTKEQTLALASGLEKSGVHFIWAVKEPVEKDSTRGNILDGFDDRVAGRGLVIRGWAPQVAVLRHRAVGAFLTHCGWNSVVEAVVAGVLMLTWPMRADQYTDASLVVDELKVGVRACEGPDTVPDPDELARVFADSVTGNQTERIKAVELRKAALDAIQERGSSVNDLDGFIQHVVSLGLNK
B5: UGT71B1: Arabidopsis recombinant glycosyltransferase (protein, UniProt Q9LSY9 1-473, looked up)
UDP-glycosyltransferase 71B1: MKVELVFIPSPGVGHIRATTALAKLLVASDNRLSVTLIVIPSRVSDDASSSVYTNSEDRLRYILLPARDQTTDLVSYIDSQKPQVRAVVSKVAGDVSTRSDSRLAGIVVDMFCTSMIDIADEFNLSAYIFYTSNASYLGLQFHVQSLYDEKELDVSEFKDTEMKFDVPTLTQPFPAKCLPSVMLNKKWFPYVLGRARSFRATKGILVNSVADMEPQALSFFSGGNGNTNIPPVYAVGPIMDLESSGDEEKRKEILHWLKEQPTKSVVFLCFGSMGGFSEEQAREIAVALERSGHRFLWSLRRASPVGNKSNPPPGEFTNLEEILPKGFLDRTVEIGKIISWAPQVDVLNSPAIGAFVTHCGWNSILESLWFGVPMAAWPIYAEQQFNAFHMVDELGLAAEVKKEYRRDFLVEEPEIVTADEIERGIKCAMEQDSKMRKRVMEMKDKLHVALVDGGSSNCALKKFVQDVVDNVP
B6: UGT74F1: Arabidopsis recombinant glycosyltransferase (protein, UniProt O22820 1-449, looked up)
Flavonol …: MEKMRGHVLAVPFPSQGHITPIRQFCKRLHSKGFKTTHTLTTFIFNTIHLDPSSPISIATISDGYDQGGFSSAGSVPEYLQNFKTFGSKTVADIIRKHQSTDNPITCIVYDSFMPWALDLAMDFGLAAAPFFTQSCAVNYINYLSYINNGSLTLPIKDLPLLELQDLPTFVTPTGSHLAYFEMVLQQFTNFDKADFVLVNSFHDLDLHEEELLSKVCPVLTIGPTVPSMYLDQQIKSDNDYDLNLFDLKEAALCTDWLDKRPEGSVVYIAFGSMAKLSSEQMEEIASAISNFSYLWVVRASEESKLPPGFLETVDKDKSLVLKWSPQLQVLSNKAIGCFMTHCGWNSTMEGLSLGVPMVAMPQWTDQPMNAKYIQDVWKVGVRVKAEKESGICKREEIEFSIKEVMEGEKSKEMKENAGKWRDLAVKSLSEGGSTDININEFVSKIQIK

How the values were obtained:
[1] = Whole-cell biocatalyst assay, E. coli expressing UGT in culture medium; type: cell-based; conditions: for Culture medium (μg/ml in supernatant) 3-O-glc: no added UDP-glucose
Experimental: FIG. 14 Whole-cell biocatalyst assay using UGT71C1. E. coli cells expressing recombinant were used in the biocatalyst assay. After incubation with 0.1 mM quercetin and 0.1 mM IPTG, cells were collected by centrifugation, extracted with 80% methanol and both the cell extracts (pellet) and culture medium (supernatant) were analysed using HPLC. (A) Changes in the combined amounts of aglycone/glucoside over a time-course of 0-48 h. (B) Changes in the level of different glucosides and aglycone in the culture medium over the same time-course.
Using the foundation established in the preceding example, we went on to investigate the potential of E. coli expressing plant UGTs as whole-cell biocatalysts to synthesise glucosides of quercetin. In the first instance, we used E. coli grown in 75 ml of standard culture medium. […] Table 2 describes results in which 7 different UGTs are expressed in E. coli and the identity and quantity of different glucosides recovered in the medium were analysed by HPLC. […] There was considerable variation in the level of different glucosides synthesised by the cells, although even under these non-optimised conditions, each of the four monoglucosides and two di-O-glucosides could be formed.

[2] = UGT enzyme reaction with quercetin (recombinant UGTs, HPLC); type: biochemical, Arabidopsis; conditions: for di-O-glucoside formation from quercetin: low substrate concentration, time parameter varied; for Specific activity (nkat/mg protein) 3-O-glc: quercetin glucosylated at 3-OH; for Specific activity (nkat/mg protein) 3-O-glc / Specific activity (nkat/mg protein) 3′-O-glc / Specific activity (nkat/mg protein) 4′-O-glc / Specific activity (nkat/mg protein) 7-O-glc: 0.5 mM quercetin, 5 mM UDP-glucose, 30° C.; for Specific activity (nkat/mg protein) 3′-O-glc: quercetin glucosylated at 3′-OH; for Specific activity (nkat/mg protein) 4′-O-glc: quercetin glucosylated at 4′-OH; for Specific activity (nkat/mg protein) 7-O-glc: quercetin glucosylated at 7-OH
Summary of the method: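 Recombinant Arabidopsis UGTs (2 μg) incubated with 0.5 mM quercetin and 5 mM UDP-glucose in 100 mM Tris-HCl pH 7.0 at 30 °C for 1 h. Quercetin glucosides separated from aglycone by reverse-phase C18 HPLC (acetonitrile gradient, 0.1% TFA), detected at 370 nm.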

[3] = E. coli, 2x YT medium, 0.1 mM IPTG, 0.1 mM quercetin, 24 h

Row | Molecule | Culture medium (μg/ml in supernatant) 3′-O-glc [1, 3] [µg/mL] | Culture medium (μg/ml in supernatant) 7,3′-di-O-glc [1, 3] [µg/mL] | Culture medium (μg/ml in supernatant) 7-O-glc [1, 3] [µg/mL] | aglycone converted to glucosides ([1]; within 6 h, E. coli in 75 ml standard culture medium, no supplementary UDP-glucose) [%] | di-O-glucoside formation from quercetin [2] | Specific activity (nkat/mg protein) 3-O-glc [2] | Specific activity (nkat/mg protein) 3′-O-glc [2] | Specific activity (nkat/mg protein) 4′-O-glc [2] | Specific activity (nkat/mg protein) 7-O-glc [2] | Culture medium (μg/ml in supernatant) 3,7-di-O-glc [1, 3] [µg/mL] | Culture medium (μg/ml in supernatant) 3-O-glc [1, 3] [µg/mL] | Culture medium (μg/ml in supernatant) 4′-O-glc [1, 3] [µg/mL]
1 | B1 | 8.00 | 10.90 | 2.12 | ~50 | significant levels of di-O-glucosides | — (Activity lower than 0.02 nkat/mg protein has been considered as trace activity and is not shown in the Table.) | 1.19 nkat/mg protein | — (Activity lower than 0.02 nkat/mg protein has been considered as trace activity and is not shown in the Table.) | 0.85 nkat/mg protein |  |  | 
2 | B2 |  |  | 4.74 |  | significant levels of di-O-glucosides | 1.16 nkat/mg protein | — (Activity lower than 0.02 nkat/mg protein has been considered as trace activity and is not shown in the Table.) | — (Activity lower than 0.02 nkat/mg protein has been considered as trace activity and is not shown in the Table.) | 1.35 nkat/mg protein | 0.71 | 1.41 | 
3 | B3 |  |  | 4.83 |  |  | — (Activity lower than 0.02 nkat/mg protein has been considered as trace activity and is not shown in the Table.) | — (Activity lower than 0.02 nkat/mg protein has been considered as trace activity and is not shown in the Table.) | — (Activity lower than 0.02 nkat/mg protein has been considered as trace activity and is not shown in the Table.) | 0.14 nkat/mg protein |  |  | 
4 | B4 |  |  | 2.36 |  |  | 2.05 nkat/mg protein | — (Activity lower than 0.02 nkat/mg protein has been considered as trace activity and is not shown in the Table.) | 3.38 nkat/mg protein | 3.22 nkat/mg protein |  | 1.08 | 0.94
5 | B5 |  |  |  |  |  | 1.85 nkat/mg protein | — (Activity lower than 0.02 nkat/mg protein has been considered as trace activity and is not shown in the Table.) | — (Activity lower than 0.02 nkat/mg protein has been considered as trace activity and is not shown in the Table.) | — (Activity lower than 0.02 nkat/mg protein has been considered as trace activity and is not shown in the Table.) |  |  | 
6 | B6 |  |  | 0.53 |  |  |  |  |  |  |  |  | 0.19
